B1: McrC endonuclease (enzyme, Escherichia coli, UniProt P15006 1-348, looked up)
chain: MEQPVIPVRNIYYMLTYAWGYLQEIKQANLEAIPGNNLLDILGYVLNKGVLQLSRRGLELDYNPNTEIIPGIKGRIEFAKTIRGFHLNHGKTVSTFDMLNEDTLANRIIKSTLAILIKHEKLNSTIRDEARSLYRKLPGISTLHLTPQHFSYLNGGKNTRYYKFVISVCKFIVNNSIPGQNKGHYRFYDFERNEKEMSLLYQKFLYEFCRRELTSANTTRSYLKWDASSISDQSLNLLPRMETDITIRSSEKILIVDAKYYKSIFSRRMGTEKFHSQNLYQLMNYLWSLKPENGENIGGLLIYPHVDTAVKHRYKINGFDIGLCTVNLGQEWPCIHQELLDIFDEYLK
notes: McrC, endonuclease of the McrBC restriction system, Escherichia coli; Dimer in the complex; Chain N of PDB 6HZ4 holds only residues 193-343 of the second copy; source: E. coli BL21(AI), purified (Ni-NTA, MonoS)

For one series, the target named is MantGMPPNP (GNP). In words: Mant-nucleotide fluorescence time trace (MantGMPPNP + buffer, then protein added). The note with it: protein added at about 160 s, signal before protein est. 26000, parent: est. 40000.
Series [1] concerns the molecule itself. The experiment in a line: cryo-EM structure; McrBΔN and McrC mixed 4:1 with GTP and MgCl2, complex purified by SEC; grids with 4.0 mg/ml McrBΔNC in 10 mM Tris-HCl pH 7.4, 2.0 mM GNP, 0.10 M NaCl, 5.0 mM MgCl2. For orientation: In gel filtration, larger molecules generally elute earlier.
The series “McrC endonuclease” deals with B1. Described as above. As to conditions: both partners purified.
The mark [2] stands for this setting: value is the mean of the trace after addition, read off a plot.

For the molecule “McrB (wild type) (from UniProt P15005) E298A”, the response with MantGMPPNP (GNP) (setting [2]) was found to be 39000 CPS/µAmps.
Still for that read-out and setting: as for “McrB (wild type) (from UniProt P15005) R348A”, the figure is 28000 CPS/µAmps.
With “McrB (wild type) (from UniProt P15005) R349A”, the response with MantGMPPNP (GNP) (trace hidden under R348A, which the legend says it overlaps, read off a …) amounted to 28000 CPS/µAmps.
The term stoichiometry N denotes a count of units in the complex or per binding partner. As to B1, the “stoichiometry N” value in series [1] amounted to 2.

B2: McrBΔN (McrB construct lacking the first 161 residues; AAA+ domain of McrB) (domain or fragment, Escherichia coli, UniProt P15005 162-459, looked up)
chain: MSKTESYCLEDALNDLFIPETTIETILKRLTIKKNIILQGPPGVGKTFVARRLAYLLTGEKAPQRVNMVQFHQSYSYEDFIQGYRPNGVGFRRKDGIFYNFCQQAKEQPEKKYIFIIDEINRANLSKVFGEVMMLMEHDKRGENWSVPLTYSENDEERFYVPENVYIIGLMNTADRSLAVVDYALRRRFSFIDIEPGFDTPQFRNFLLNKKAEPSFVESLCQKMNELNQEISKEATILGKGFRIGHSYFCCGLEDGTSPDTQWLNEIVMTDIAPLLEEYFFDDPYKQQKWTNKLLGDS
notes: McrB, AAA+ GTPase of the McrBC restriction system, Escherichia coli; Forms a hexameric ring in the structure; two rings per tetradecamer; also called McrB∆N; source: E. coli BL21(AI), purified (Ni-NTA, MonoQ, Superdex200)
On to B2, for which the binding result with McrC endonuclease is recorded as “binds”.

Values taken from paper PMC6624300, “Structure-based mechanism for activation of the AAA+ GTPase McrB by the endonuclease McrC” (Nature Communications, 2019).
